Test results as given in paper PMC4084727.

How the values were obtained:
GST-Freud-2 (GST-hF2) [1] = target: T1, GST-Freud-2 (GST-hF2) (Homo sapiens, UniProt Q5T0F9 1-858); assay: EMSA
T1 sequence: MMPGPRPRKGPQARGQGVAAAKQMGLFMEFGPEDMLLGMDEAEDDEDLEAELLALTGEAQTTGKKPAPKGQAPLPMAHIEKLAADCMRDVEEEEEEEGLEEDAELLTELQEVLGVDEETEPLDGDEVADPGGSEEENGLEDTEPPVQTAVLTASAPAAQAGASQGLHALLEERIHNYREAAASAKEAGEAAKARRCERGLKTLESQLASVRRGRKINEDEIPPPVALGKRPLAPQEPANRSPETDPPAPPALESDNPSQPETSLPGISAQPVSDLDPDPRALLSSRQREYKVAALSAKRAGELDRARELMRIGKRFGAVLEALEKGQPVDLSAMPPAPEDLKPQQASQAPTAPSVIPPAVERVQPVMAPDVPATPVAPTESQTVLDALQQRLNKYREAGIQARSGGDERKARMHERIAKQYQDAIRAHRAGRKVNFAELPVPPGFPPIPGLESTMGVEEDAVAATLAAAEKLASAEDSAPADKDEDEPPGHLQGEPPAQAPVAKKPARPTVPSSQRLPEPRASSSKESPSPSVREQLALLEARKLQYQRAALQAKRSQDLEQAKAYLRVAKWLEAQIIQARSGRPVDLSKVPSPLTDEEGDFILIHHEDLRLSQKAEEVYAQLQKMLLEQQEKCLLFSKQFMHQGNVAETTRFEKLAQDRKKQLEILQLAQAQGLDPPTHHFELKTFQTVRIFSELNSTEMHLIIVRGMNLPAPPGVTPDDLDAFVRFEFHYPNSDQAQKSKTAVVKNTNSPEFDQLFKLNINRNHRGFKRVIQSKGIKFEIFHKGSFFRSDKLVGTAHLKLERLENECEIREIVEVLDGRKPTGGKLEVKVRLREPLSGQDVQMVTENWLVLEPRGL

GST-Freud-2 (GST-hF2) [2] = target: T1, GST-Freud-2 (GST-hF2); assay: EMSA; remark: listed apart in the source
GST-Freud-2 (GST-hF2) [3] = target: T1, GST-Freud-2 (GST-hF2); assay: competition
GST-Freud-2 (GST-hF2) [4] = target: T1, GST-Freud-2 (GST-hF2); assay: competition; remark: listed apart in the source
GST-Freud-2 (GST-hF2) [5] = target: T1, GST-Freud-2 (GST-hF2); assay: competition; remark: listed apart in the source

B1: 5'-DRE (-1624/-1598) (dsDNA)
DNA 1: AGATGGCACTCTAAAACATTTGCCAGA
DNA 2: TCTGGCAAATGTTTTAGAGTGCCATCT
B1: binds (GST-Freud-2 (GST-hF2) [1]).

B2: 3'-DRE (-1597/-1565) (dsDNA)
DNA 1: AGGTGGCGACATAAAACCTCATTGCTTAGAACT
DNA 2: AGTTCTAAGCAATGAGGTTTTATGTCGCCACCT
B2: binds (GST-Freud-2 (GST-hF2) [2]).

B3: 17-bp 5' (-1624/-1608) (dsDNA)
DNA 1: AGATGGCACTCTAAAAC
DNA 2: GTTTTAGAGTGCCATCT
B3: binds (GST-Freud-2 (GST-hF2) [3]).

B4: 16-bp 5' (-1613/-1598) (dsDNA)
DNA 1: TAAAACATTTGCCAGA
DNA 2: TCTGGCAAATGTTTTA
B4: binds (GST-Freud-2 (GST-hF2) [3]).

B5: 19-bp 3' (-1597/-1578) (dsDNA)
DNA 1: AGGTGGCGACATAAAACCT
DNA 2: AGGTTTTATGTCGCCACCT
B5: binds (GST-Freud-2 (GST-hF2) [4]).

B6: 12-bp 3' (-1578/-1566) (dsDNA)
DNA 1: CATTGCTTAGAA
DNA 2: TTCTAAGCAATG
B6: no binding (GST-Freud-2 (GST-hF2) [5]).
